Measured values as given in publication PMC12059179, “A short intrinsically disordered region at KtrB’s N-terminus facilitates allosteric regulation of K^+ channel KtrAB” (Nature Communications, 2025).

B2: KtrB from Vibrio alginolyticus, tagless, full length (natural protein, UniProt O87953 1-455, looked up)
chain: MTQFHQRGVFYVPDGKRDKAKGGEPRIILLSFLGVLLPSAVLLTLPVFSVSGLSITDALFTATSAISVTGLGVVDTGQHFTLAGKILLMCLMQIGGLGQMTLSAVLLYMFGVRLSLRQQALAKEALGQERQVNLRRLVKKIVTFALVAEAIGFVFLSYRWVPEMGWQTGMFYALFHSISAFNNAGFALFSDSMMSFVNDPLVSFTLAGLFIFGGLGFTVIGDVWRHWRKGFHFLHIHTKIMLIATPLLLLVGTVLFWLLERHNPNTMGSLTTGGQWLAAFFQSASARTAGFNSVDLTQFTQPALLIMIVLMLIGAGSTSTGGGIKVSTFAVAFMATWTFLRQKKHVVMFKRTVNWPTVTKSLAIIVVSGAILTTAMFLLMLTEKASFDKVMFETISAFATVGLTAGLTAELSEPGKYIMIVVMIIGRIGPLTLAYMLARPEPTLIKYPEDTVLTG
notes: KtrB, transmembrane pore-forming subunit of the K+ channel KtrAB, Vibrio alginolyticus; C-terminal residue G455; Homodimer; It was in DDM for the deposited structures and in MSP2N2 nanodiscs with E. coli polar lipids for one cryo-EM data set; also called VaKtrB; KtrB dimer; source: E. coli LB2003, membranes mixed with KtrA-containing cytosol, solubilised in DDM, co-purified with KtrA (Ni-NTA, …)
B4: KtrB from Vibrio alginolyticus with deletion of residues 2-19 (natural protein)
chain: MAKGGEPRIILLSFLGVLLPSAVLLTLPVFSVSGLSITDALFTATSAISVTGLGVVDTGQHFTLAGKILLMCLMQIGGLGQMTLSAVLLYMFGVRLSLRQQALAKEALGQERQVNLRRLVKKIVTFALVAEAIGFVFLSYRWVPEMGWQTGMFYALFHSISAFNNAGFALFSDSMMSFVNDPLVSFTLAGLFIFGGLGFTVIGDVWRHWRKGFHFLHIHTKIMLIATPLLLLVGTVLFWLLERHNPNTMGSLTTGGQWLAAFFQSASARTAGFNSVDLTQFTQPALLIMIVLMLIGAGSTSTGGGIKVSTFAVAFMATWTFLRQKKHVVMFKRTVNWPTVTKSLAIIVVSGAILTTAMFLLMLTEKASFDKVMFETISAFATVGLTAGLTAELSEPGKYIMIVVMIIGRIGPLTLAYMLARPEPTLIKYPEDTVLTG
notes: KtrB, Vibrio alginolyticus, with the N-terminal residues 2-19 deleted; Two KtrB dimers stand in the solved assembly: KtrBΔ2-19_(4)A8, deposited as KtrB2A8B2 with the N-terminal KtrB deletion; also called KtrBΔ2-19; KtrAB_(Δ2-19); source: purified as a complex with KtrA (SEC)

Assays:
KtrA (VaKtrA, KtrAC3H) [1] = biological target: T1, KtrA (VaKtrA, KtrAC3H) (Vibrio alginolyticus, UniProt O87952); experiment: isothermal titration calorimetry; assay type: binding; settings: pH 8, 24 °C, 20 mM HEPES, 140 mM NaCl, 60 mM KCl; one-site fit; no KtrB
T1 construct: full-length cytosolic RCK subunit, C-terminal 3C-cleavable His tag (KtrAC3H), eluted with imidazole (tag kept), expressed in E. coli C43(DE3)ΔacrAB; homooctameric ring
T1 sequence (O87952 1-220): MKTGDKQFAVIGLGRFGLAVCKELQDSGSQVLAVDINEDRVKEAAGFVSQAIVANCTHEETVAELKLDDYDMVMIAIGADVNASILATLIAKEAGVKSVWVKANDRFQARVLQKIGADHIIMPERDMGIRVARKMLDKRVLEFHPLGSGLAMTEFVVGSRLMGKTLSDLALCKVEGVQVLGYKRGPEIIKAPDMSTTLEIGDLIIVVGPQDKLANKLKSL

[2] = biological target: T2, KtrAB (KtrB2A8B2 complex) (Vibrio alginolyticus, UniProt O87952); experiment: cryo-EM structure, […] Å; assay type: binding; settings: ADP found despite ATP agarose and ATP in the sample; Mg2+ at alpha-phosphate
T2 construct: gene ktrA; nonphysiological assembly with a second KtrB dimer on the KtrA octamer; full-length, in DDM; wild type purified via ATP agarose; KtrA C-terminal His tag removed by 3C protease; with Ktr system potassium uptake protein B
T2 sequence (O87952 1-220): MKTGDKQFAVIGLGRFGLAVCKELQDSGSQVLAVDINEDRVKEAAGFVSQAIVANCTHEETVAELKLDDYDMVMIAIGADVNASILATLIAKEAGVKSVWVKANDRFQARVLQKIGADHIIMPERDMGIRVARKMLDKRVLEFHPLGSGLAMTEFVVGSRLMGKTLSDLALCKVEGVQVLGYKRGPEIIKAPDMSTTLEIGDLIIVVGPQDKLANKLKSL
T2 sequence (O87953 1-455 partner): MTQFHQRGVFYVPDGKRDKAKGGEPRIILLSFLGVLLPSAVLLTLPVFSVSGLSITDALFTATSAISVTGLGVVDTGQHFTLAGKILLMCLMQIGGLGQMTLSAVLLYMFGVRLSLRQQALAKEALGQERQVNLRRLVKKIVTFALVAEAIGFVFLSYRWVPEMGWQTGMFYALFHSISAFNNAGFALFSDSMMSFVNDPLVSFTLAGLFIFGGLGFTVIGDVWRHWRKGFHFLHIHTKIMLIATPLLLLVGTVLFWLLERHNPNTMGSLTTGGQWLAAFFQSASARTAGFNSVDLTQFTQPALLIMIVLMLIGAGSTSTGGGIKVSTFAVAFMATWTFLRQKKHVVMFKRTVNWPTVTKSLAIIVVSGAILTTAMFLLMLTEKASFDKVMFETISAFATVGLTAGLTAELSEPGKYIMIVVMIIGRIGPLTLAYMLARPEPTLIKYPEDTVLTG

[3] = biological target: T3, KtrAB (native KtrB2A8 complex) (Vibrio alginolyticus, UniProt O87952); experiment: cryo-EM structure, […] Å; assay type: binding; settings: co-purified ADP, sample prepared with ATP and MgCl2
T3 construct: gene ktrA; full-length complex in DDM; tagless KtrB membranes (E. coli LB2003) mixed with KtrA (C-terminal His tag, removed by 3C protease); KtrA octamer with one KtrB dimer; with Ktr system potassium uptake protein B
T3 sequence (O87952 1-220): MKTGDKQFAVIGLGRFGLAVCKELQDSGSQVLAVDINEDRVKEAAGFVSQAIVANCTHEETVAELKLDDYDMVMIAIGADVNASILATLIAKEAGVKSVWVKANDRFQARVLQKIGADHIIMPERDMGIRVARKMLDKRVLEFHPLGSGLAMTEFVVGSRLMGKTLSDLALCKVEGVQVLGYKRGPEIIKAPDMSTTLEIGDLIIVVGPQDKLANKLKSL
T3 sequence (O87953 1-455 partner): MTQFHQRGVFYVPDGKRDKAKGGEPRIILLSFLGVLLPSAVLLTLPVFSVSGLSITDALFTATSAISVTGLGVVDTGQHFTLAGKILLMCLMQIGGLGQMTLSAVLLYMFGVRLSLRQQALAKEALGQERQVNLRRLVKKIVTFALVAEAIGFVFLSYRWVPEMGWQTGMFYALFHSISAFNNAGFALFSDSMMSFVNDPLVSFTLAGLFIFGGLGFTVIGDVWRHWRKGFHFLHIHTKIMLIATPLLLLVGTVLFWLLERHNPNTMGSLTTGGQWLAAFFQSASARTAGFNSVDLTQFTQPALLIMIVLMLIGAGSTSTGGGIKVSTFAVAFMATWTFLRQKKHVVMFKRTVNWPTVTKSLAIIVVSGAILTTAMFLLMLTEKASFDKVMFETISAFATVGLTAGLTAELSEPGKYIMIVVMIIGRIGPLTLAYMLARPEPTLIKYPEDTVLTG

KtrA (VaKtrA, KtrAC3H) [4] = biological target: T1, KtrA (VaKtrA, KtrAC3H); experiment: differential scanning fluorimetry (SYPRO Orange); assay type: binding; settings: pH 7.5, 20 mM Tris-HCl, 140 mM NaCl, 60 mM KCl; 5 µM KtrA; melting temperature with ligand, not a shift
[5] = biological target: B2; experiment: cryo-EM structure; natively assembled KtrB2A8 complex in DDM, 2.8 Å, C2 symmetry; sample supplemented with 1 mM ATP and 2 mM MgCl2, ADP found bound; settings: both partners purified
[6] = biological target: the molecule itself; experiment: as above
[7] = biological target: B2; experiment: cryo-EM structure; nonphysiological KtrB2A8B2 assembly purified via ATP agarose, in DDM, 2.5 Å, D2 symmetry; 1 mM ATP and 2 mM MgCl2, ADP found bound; settings: both partners purified
[8] = biological target: the molecule itself; experiment: as above
[9] = biological target: B4; experiment: cryo-EM structure; KtrAB with KtrB Δ2-19, KtrBΔ2-19_(4)A8 assembly, supplemented with 1 mM ATP, 3.6 Å, 58,000 particles; settings: both partners purified
[10] = biological target: the molecule itself; experiment: as above

`Nc1ncnc2c1ncn2[C@@H]1O[C@H](COP(=O)(O)OP(=O)(O)O)[C@@H](O)[C@H]1O` [ADP] was tested, and the Kd (KtrA (VaKtrA, KtrAC3H) [1]) was 3.4 µM, the “cryo-EM structure, 2.5 Å” value [2] was “ADP molecules bound to the N lobes of each of the eight KtrA subunits” and the “cryo-EM structure, 2.8 Å” value [3] was “KtrA ring contains non-protein densities corresponding to ADP molecules”. The Tm (KtrA (VaKtrA, KtrAC3H) [4]) was 67 °C.

`Nc1ncnc2c1ncn2[C@@H]1O[C@H](COP(=O)(O)OP(=O)(O)OP(=O)(O)O)[C@@H](O)[C@H]1O` [ATP] gave a Kd (KtrA (VaKtrA, KtrAC3H) [1]) of 2.4 µM and a Tm (KtrA (VaKtrA, KtrAC3H) [4]) of 55 °C.

B1: KtrA from Vibrio alginolyticus, His tag cleaved off with 3C protease (natively assembled KtrB2A8 preparation) (natural protein, UniProt O87952 1-220, looked up)
chain: MKTGDKQFAVIGLGRFGLAVCKELQDSGSQVLAVDINEDRVKEAAGFVSQAIVANCTHEETVAELKLDDYDMVMIAIGADVNASILATLIAKEAGVKSVWVKANDRFQARVLQKIGADHIIMPERDMGIRVARKMLDKRVLEFHPLGSGLAMTEFVVGSRLMGKTLSDLALCKVEGVQVLGYKRGPEIIKAPDMSTTLEIGDLIIVVGPQDKLANKLKSL
notes: KtrA, cytosolic RCK subunit of the K+ channel KtrAB, Vibrio alginolyticus; full-length KtrAB; Residues of the 3C site may remain at the C-terminus after cleavage; also called VaKtrA; KtrAC3H; source: E. coli C43(DE3)ΔacrAB; not shown: His tag, C-terminal, cleaved
With B1 the binding result [5] was “binds” and the “stoichiometry N” value [6] was 8.

In the case of B2, the “stoichiometry N” value [6] is reported as 2.

B3: KtrA from Vibrio alginolyticus with C-terminal His tag (KtrAC3H), eluted with imidazole (natural protein, UniProt O87952 1-220, looked up)
chain: MKTGDKQFAVIGLGRFGLAVCKELQDSGSQVLAVDINEDRVKEAAGFVSQAIVANCTHEETVAELKLDDYDMVMIAIGADVNASILATLIAKEAGVKSVWVKANDRFQARVLQKIGADHIIMPERDMGIRVARKMLDKRVLEFHPLGSGLAMTEFVVGSRLMGKTLSDLALCKVEGVQVLGYKRGPEIIKAPDMSTTLEIGDLIIVVGPQDKLANKLKSL
notes: KtrA, cytosolic RCK subunit of the K+ channel KtrAB, Vibrio alginolyticus; full-length KtrAB; Same construct as m1; Here no 3C cleavage is reported: imidazole elution for isolated KtrA, and imidazole removal is mentioned before the ATP agarose step; also called VaKtrA; isolated KtrA ring; source: E. coli C43(DE3)ΔacrAB, purified (Ni-NTA eluted with imidazole, SEC); for KtrB2A8B2 also ATP agarose
With B3 the binding result [7] was “binds”, the “stoichiometry N” value [8] was 8 and the binding result [9] was “binds”.

B4: binds [10].
